The results in this text go back to the DeepSol protein solubility set.

A short description of the data set: soluble on expression in E. coli; label from the status in PepcDB or PDB records.
With “MERVTVRMARSDRRTPWGFGVTEAPDGAVLIVNVIGGSLADRAGLRNGDVVDRLEDLDNLDINAVDRLLVTAHEKIELIVTRQPSGAATRIWRPEVTENTGPGQDQTPYRVNLQHSSDTRPPQGFNNSALPFETDQRVKHMQYNSPLGIYSDKSAAEQYVQQTQGLGDNSGARAAAQRQDEPAYLRSETLRLLKEQEHGSAGGAGTTLSNHPNPSGLPVCFMCTRPILGVMARAAGKNLHGDCLSCATCGNSLRNVGHHFIEDKFYCDIHGTQRKHGGRPGMDPNIFVKSSPTAAQPVHIQDSPRAAYHPQVNTARPVSVSPAPSAGSKTVTTHYHTPKTQGILSPGQRGVPTAAFGADLSKSVTYGGGVGPGGTHYDSNRLSPAPSQYSTQSRNQSQQHYQQHVVQAPPPVPSNPPPSNEQQSQSRVQNLPDSVRSAVSPRRSGKSPRQWPPPAMPTTNRYWQIDPADALKKEKVNYGEDLVALIKEVEQSKEKEPKVKKEPKKGTRGARRASNISKEQVQQAFEEQRKRTERKEIKKLEKEIKPKPELKVEVPVEPLVVPTSKPLEEPCPEALPPPKINDGIHWTVIHSPVLRSPSPAKVTSEAAIPESNGVVKPIPSYASQPIGISKTSTPQPFRPGSQVERPHYSSVGLKDVHAPVPLPRSPQHSPQPVQSYIVRSSDANVTTSTNLQTTVTRQYTENDNKSQFLQQPHPDTIDSSTSPIPTIRLNRHTKPEPSTPLSVPTVSINDIATSPIKITEPSRPWRASVSNSATSPIKIHESRVQPVDESRGLHRHEEKAQIETSTIKIHEPSSPPPSVHKFGAVNTRAAPAPVQFMQTPRIAVKIHEPTGPSPTPPSTPSHPIKRDPKHFKKVDFSKTSPTVIPEWKDSADIVDESDILTECSREDDSISFLKAATYDGDESEMIDNNIDNKSDITSTFDIEEEEVDVVQDRERIRVVGRKGGEGGEAEKQWRQRAMELLDDDAQTERDLRIVAALNERLQGLREMEDDDRVRAIECIARHQSELEQTQTQLSTLLESAIVYLQNLRPELELTEPIDNDAKSLETVKFEPTRAEQRVNEIRKKVLEDLEHLPILGDGMDSVPPPPPERKVFPFQSYQPIAPQFPVPAAESPVTQSLHDVLDEFYSLRKPTPTQNVAQSSDTTAEDSRNFLASRLGQVMIDENKKAGGSNGSSQHHNQQGSSYTKTSFERTTTETRPQQNTGAPRAGDFRGTGHLTTTTTTQQNGGRAPFCESCKQQIRGAFVLATGKSWCPEHFVCANSSCRRRLLECGFVEEDGQKFCESCFEQHIAPRCNKCSKPIISDCLNALQKKWHPTCFTCAHCQKPFGNSAFYLEQGLPYCEQDWNALFTTKCVSCRYPIEAGDRWVEALGNAFHSNCFTCARCNHNLEGESFFAKNGQPFCRLHA”, the “soluble on expression in E. coli” value is on record as “not soluble”.

Take “MESALQKAAGEGMDEFIQVFTDKYKEIIGGELTADTMPLLTGEQHSLLAYQIFRDEIMFGGFCQLIQNGYGGYIFDNPFAKVMRLWGAEEFSKLVYKAKKIYDANRKDLEKERTDDEFMAMYEQYEAFDDLEEAYLDMEEQVTTLVASYVDNHLELFAKIIK”: the “soluble on expression in E. coli” value is reported as “not soluble”.

“MESDPMFIGFGYDRHPLVEGRRLVLAGVEIDAPLGSLGHSDGDVLSHAIIDALLGAGCLGDIGTWFPETKEYKDANSLDLLKETVKILEERGFSVVNVDATVVASIVKLSPYREKIVENLKSALETSRVNVKFKSGNTLGFEGEERGISAYAVCLVEEKGCTKST”: the “soluble on expression in E. coli” value was “not soluble”.

As for “MESEKKIAHEIGGVKNDALRFGLHGVKSNIIGSHPLESSYESEKKSKEALKRTVIAHAYGTALPLKMDMDRQILSRFQRPPGPIPSSMLGLEVYTGAVDDFGFEDYLNDPRDSETFKPVDFHHGMEVRLGISKGPIYPSFM”, the “soluble on expression in E. coli” value is given as “not soluble”.

Take “MESFELEDLTLWLIRDADEAEMWIDRWAVSYPVVQMSEASANGSTEAWQSALQTAFERIQGRHIAVVAHGAGAAAFLAWLYRADILTQKKLAGIILVSPRPDIFPDDAEHTFQRVRCPCRAALVVSEHGGVPHGWAQKQADLWNARLLVSPHSGSLNGMLGGWQWGMKLMQEMLLA”: the “soluble on expression in E. coli” value is listed as “not soluble”.

As to “MESFQNLAKKPTLKKQIIEQAFDLKCENCGRKYDYYKFDDGSEFKHGCDCEMIEYAKQSTENYHKRNRRRKAERIFKQSIMNEDLTKATFDNYNPTNEQLVYAKNLCERYANNFTLDNKQSLLIQGSFGTGKSHLSMSIVKSVKAKGYTVLYMNVPQLISTIKNTYNNQTAMTEQELAQIISDVDLMVFDDYGINMNEFATSKMFELIESRIGKHNIFTTNLDEKEMTKNKDLQRIFSRIMSNTTLIKMDGQDYRTRGLKLLEHHHHHH”, the “soluble on expression in E. coli” value is “soluble”.

On to “MESKHKLSINQWALEDRPREKMMEKGAAALSDAELLAILIGSGNTEESAVELMRRLLLSCDNNLNSLAKWEVCDYSRFKGMGPAKSITVMAALELGKRRKLQNIQERPRISCSRDIYDIFQPVMCDLEQEEFWVLLLNQATRLIDKVRISTGGIDGTYTDVRTILREALLQRATQIAVVHNHPSGNIQPSQPDRTLTEHIRRAADTMNIRLIDHVIVCEDKFYSFADEGLL”, for which the “soluble on expression in E. coli” value is “not soluble”.

For the sequence “MESKIPAIEKHRDAYVKIRIIESLDELALGLKLLKEGFSRNSANKVFQSWKAIISALTVINLEKMPRNEKEKEWYYKSGFLAPTTGLKGISQRLEELGYKVNSLTSVALELHRYAYNGLYKGASDYYEREEAINDIIYLSKEIMKVIKEFFKEYWDEEIEEHYNLAEKELMKLEHHHHHH”, the “soluble on expression in E. coli” value is listed as “not soluble”.

As for “MESNFIDWHPADIIAGLRKKGTSMAAESRRNGLSSSTLANALSRPWPKGEMIIAKALGTDPWVIWPSRYHDPQTHEFIDRTQLMRSYTKPKK”, the “soluble on expression in E. coli” value is given as “soluble”.

With “MESPIELAPDYYLENFFKLTHHAVTWYSDLLTEEEHAWLCSFDSLNKHAQCLLVRLYSRKGCWFRSDKLNYQEIPLIDAALAELGGQDFISLSPPLSHQEVAANLLTKPEISALYPELPKSLKKDALVERLSNTEFDRVEQLEFTIVRLNSAHMIDVLLTLFFANTHQDLSQFVLDDLGLHQFEQYQLSKVRRFFNSREQIDRLIELSQLANLYWQFDRKDKANLDLLIEAMPHPVHHPYVDRKREHMLNDIARDYERIDELETALSLFGQTQLTPSRERRARIYDKLNHDDLFSDIVTEMLHSPIDVSELEVAQKLEQRLKRKQGEKVPRVTKPTCMEYRVELDLSQQRVELASKAHFESLGWSVFYAENALLNALLGLTFWDAIFAPIEGAFINAYQHRPLDLYHSDFVAKRQALIDEAFAQLKLGNTQAILTKYDEKFGISNPFVQWSLIGKELLEQSLNTIPTRTLLELFKVQLSDLKLYRNGMPDLIAFRDNEFEWIEVKGPGDKLQDNQWRWIKEFSRLNVPFAVCYVTARKEDEKRVD”, the “soluble on expression in E. coli” value is “not soluble”.

For “MESTAPNAPTEEAPEPTPFVFEFKNNHIKLIELHVYTDSMEILLIGNDGNRYEVEIQEYPGEACIEQISLNRVLVQKKECTSMYPSAPIAIVTLYSILRQPGVKVDCFYYRILNQYFVRDKNNKTEHAKWDERSASLTKMLKAMMRALMKKLEVEVFKIVYNGKEEEVMCLLPYFEPGYLRRICLFNPLYVSPTVIDNIITTEQWKQAKELNTMTGEPVAFPVESHAHFESLRIRIPELKQIDVILLVLKYLNQKTPKDNEIGVQNVSELFDFMWGSMGIPHENDPETIRYTWKSGTYNLYAEVTKNGVRFTSETRQA”, the “soluble on expression in E. coli” value is “not soluble”.

On to “MESTLSLQANLYPRLTPAGAFYAVSSDAPSAGKTLLHSLLKADADEMVSSEKLLTWADTADIDTALNLLYRLQKLEFLYGDENGHSDGINLSDEQLPLLMEQLSGSGKALLVDRNGLYLANANFHHEAAEELGLLAAEVAQMEKKYRLLIKNNLYINNNAWGVCDPSGQSELTFFPLYIGSTKFILVIGGIPDLGKEAFVTLVRILYRRYSNRV”, for which the “soluble on expression in E. coli” value was “not soluble”.

In the case of “METEEEIQNVNVHHGHNIRRTRIEKNIKQDALAALVNMTQPNVSKYEKMRVIEDEMLNRFARALNVPVEYLKTLEEDAPSVVFENITNNVHDNKDSSMGSTGYNNDSITNTFNPIDKITELYERLLKEKDEKYAALEKRIQGLEQQNNNGK”, the “soluble on expression in E. coli” value is “not soluble”.

In the case of “METIIHKIRLFDVAQADAFEFWVQNVDYATCPDLPSVVRFDVHRASLQANAPYHYVEVIKITDRAAFDADMETSTFAGLVQAFSRMAEVVEELAGEQLGSGYAAG”, the “soluble on expression in E. coli” value is on record as “soluble”.

As to “METKSLICTACPRGCRLSVKIENENISVSGNKCPKGLSYGKTEAVCPMRILTSTIASSVEGFPRLPVKTSVEVPLKNFSEYMHLIRKLKADSSKMPGDIIVKNFAESGADLIAAGGSLLEHHHHHH”, the “soluble on expression in E. coli” value is reported as “soluble”.

“METQENMIKTALQAAQKPFFEFAPNNTPLVFTPDQDGGWRYKSHPELMQNPYRKCGKFLMHDTASLIKFVQKHKQDGTQIYIDADFKSGRIDVTAVINGHTQQAPGWLDFYAVYTPQHTTSASNWLNNNAHRMNQMEFSHFLTNNARNIVSKNPGNENSVYPTAAEVLDFALNLEYTEKTTFKQGYREQDGRINFTFQSEDSGQTEKNLKMFERFGIEFTPHQGGASYFVEALLKFRIDKNSGALVLWYELQQIDAVIEQAAKDISEAVQKAFPEIDIYFGVIA”: the “soluble on expression in E. coli” value was “soluble”.

Consider “METSMITELKSVRDIWKKMPSERHARIFLEEMIWPSGRHCPHCGSLSSTPIRGRTARPGLYQCAERECCLQFTVTTKTPMHATKLDLRIWIAAIFLMLTSSKGISSVVMARILGVNQKTAWKLGHAIRELMDEREAVSARLAGVVEVDEAYVGGAPKFKKGVKNKRGRGTGKPMVLVAADRTGQAKATLIPNAKGATLGPIMKEWIDPSSALMTDSNTAYRKIGRSFASHHTVNHGKRQHSRPSKGAHINTVEAVNSQVQRALIGVYHRLGRQHLQRYLDEILWQWNHRQQEVKIRNRKTSSGTKTIATRVWKPIPVVDQMRGLLCCAVGRQLRRTPQWGLCWPIHLFEHKGTFA”, for which the “soluble on expression in E. coli” value is on record as “soluble”.

As for “METTQKDELSSFLSVLPPVDFCCVYGSTLHPNNQDKSKMVDYILGVSDPIKWHSANLKMNSDHYASWMVHLGGARLITNVADKVGVGVHFNPFVNWNDRKLKYGVVRMHDLVQDILDWKRFYLSGRLQKPVHMLVDNLDIEDVNSVNKRAAISAALLLLPSKFTEEDLYAKICSLSYMGDLRMFFAEDTNKVNKIVKGQFDLFQSMYKPFLEECETKNLLRFSSAEASHTKLVQDSSLSATRSLVSSLPASVRSQMGKSLGEKKFVSETGRVMGEVCISSREEAAKCMEKVMRRRVMVSSGRQAVSGFLAAGAINATMYLSQKMRKAWNSRA”, the “soluble on expression in E. coli” value was “soluble”.

With “MEVIREQEFVNQYHYDARNLEWEEENGTPKTNFEVTFQLANRDEAAKVTSIVAVLQFVIVRDEFVISGVISQMAHIQGRLINEPSEFSQDEVENLAAPLLEIVKRLTYEVTEIALDRPGVTLEFNS”, the “soluble on expression in E. coli” value is listed as “soluble”.

With “MEVNKKQLADIFGASIRTIQNWQEQGMPVLRGGGKGNEVLYDSAAVIKWYAERDAEIENEKLRREVEE”, the “soluble on expression in E. coli” value is given as “soluble”.

Take “MEVTDVRLRRVNTDGRMRAIASITLDHEFVVHDIRVIDGNNGLFVAMPSKRTPDGEFRDITHPINSSTRGKIQDAVLNEYHRLGDTEALEFEEAGAS”: the “soluble on expression in E. coli” value was “soluble”.

Turning to “MEWYMGKYIRPLSDAVFTIASDDLWIESLAIQQLHTTANLPNMQRVVGMPDLHPGRGYPIGAAFFSVGRFYPARRRGNGAGNRNGPLL”, the “soluble on expression in E. coli” value is “not soluble”.

For the sequence “MEYGVLSWWDYGNWIVYVGKRPAVSNNFQTGVEDSANFLLTDSEEEAKTIVEKLKVKYVMTDTLMAEGKFSSITSLAGKEIGEYYEVETVKGDTGLRTVATPKQALLQTQVYKLHKLDGTSLGHFRLVHESAVNSTDDGNSKENTVKVFEYVKGATLEHHHHHH”, the “soluble on expression in E. coli” value was “soluble”.

For the sequence “MEYIYASLLLHSAKKEISEDALKNVLTAAGISVDEVRLKAVVAALKEVNIDEVLKNAAAMPVAVAAQPQATQAQPAAEEKKEEKKEEEKKGPSEEEIASGLASLFGLEHHHHHH”, the “soluble on expression in E. coli” value is listed as “not soluble”.
